Data from US10208121B2, “Anti-Axl antagonistic antibodies” (BERGEN TEKNOLOGIOVERFORING AS, priority 2014, dated 2019).
Entries after “also recorded” stand apart in the source; their conditions may differ.

B1: 10C9: mouse anti-Axl monoclonal antibody from hybridoma UT-10C9-B9, IgG2b; VH SEQ ID NO: 3, VL SEQ ID NO: 4 (antibody, listed as Mus musculus, V domains shown)
VH: QVQLQQPGPELVKPGASVKISCKTSDYNFTRYYIHWVKQRPGQGLEWIGWIYPGTGDSKYNEKFKGRATLTADTSSSTAYMQLSSQTSEDSAVYFCARNGNYWYFDVWGAGTAVTVSS
VL: DIVMTQAAPSGPVTPGESVSISCRSSKSLLHSNGNTYLYWFLQRPGQSPQLLIYRMSNLASGVPDRFSGSGSGTAFTLRISRVEAEDVGIYYCMQHREYPFTFGGGTKLEIK
B2: 10G5: mouse anti-Axl monoclonal antibody from hybridoma WR-10G5-E5, IgG1; VH SEQ ID NO: 21, VL SEQ ID NO: 22 (antibody, listed as Mus musculus, V domains shown)
VH: QVQLQQSGAELVRPGASVKLSCKASGYSFTDFYINWVRQRPGQGLEWIARIFPGGDNTYYNEKFKGKATLTAEESSSTAYIQLSSLTSEDSAVYFCARRGLYYAMDYWGQGISVTVSS
VL: DVLMTQTPLSLPVSLGDQASISCRSSQSLVHSNGIPYLHWYLQKPGQSPKLLIYRVSNRFSGVPDRFSGSGSGTDFTLKISRVEAEDLGVYFCSQGTHVPPTFGGGTKLEIK
B3: c10G5: chimeric (mouse variable/human constant) IgG1 variant of antibody 10G5 (antibody)
heavy: B2 VH
light: B2 VL
modifications: left off: a dimerising Fc or GST
notes: chimeric (mouse variable/human constant) IgG1 variant of antibody 10G5

Assays:
[1] = test system: Axl-positive breast cancer cell line MDA-MB-231; test: Flow cytometry binding to Axl-positive MDA-MB-231 cells; assay type: cell-based, human; conditions: different antibody concentrations, MFI
Protocol: Different concentrations of mouse and chimeric antibodies were tested in flow cytometry for binding to triple-negative breast cancer cell line MDA-MB-231. The bound mouse and chimeric antibodies were detected with APC-conjugated donkey F(ab′)2 fragments specific for either mouse IgG (H+L), 1:500 dilution, or human IgG (H+L), 1:300 dilution, respectively (both from Jackson ImmunoResearch). The cell staining was measured using Accuri C6 flow cytometer (BD Biosciences). MFI, geometric mean fluorescence intensity.
The purified chimeric antibodies (>95% purity) were analysed for binding to Axl-positive breast cancer cell line MDA-MB-231 in flow cytometry. For comparison, the parental mouse MAbs 10C9 and 10G5 were used. For flow cytometry, the adherent cells in culture were washed with PBS, detached by treatment with trypsin (0.25%) for 1 min and hitting culture dish for full detachment. Trypsin was quenched by adding into the tissue flask the complete medium followed by washing the cells with PBS. During the washing steps, the cells were collected by centrifugation at 200 g for 5 min. The antibody was diluted for total concentration in PBS containing 0.02% bovine serum albumin (BSA). Cell staining was performed using 200 μL of cell suspension comprising 10^5 cells for 20 min at room temperature. The cell-bound antibodies were detected with APC-conjugated donkey anti-human or anti-mouse, respectively, IgG (H+L) F(ab′)2 fragments (Jackson ImmunoResearch). After two washing steps with PBS/0.02% BSA, the cells were resuspended in 200 μL and kept on ice before analysis on Accuri C6 flow cytometer (BD Biosciences).

[2] = target: T1, human Tyro3 (rhTyro3/Dtk-Fc chimera) (Homo sapiens, UniProt Q06418); test: Biacore binding analysis on immobilized human Tyro3; conditions: 10 μg/mL, 25° C.
T1 construct: Soluble recombinant antigens corresponding to the extracellular domains of members of the human TAM receptor family; purchased R&D Systems 859-DK
T1 sequence (Q06418 41-429 limits assumed): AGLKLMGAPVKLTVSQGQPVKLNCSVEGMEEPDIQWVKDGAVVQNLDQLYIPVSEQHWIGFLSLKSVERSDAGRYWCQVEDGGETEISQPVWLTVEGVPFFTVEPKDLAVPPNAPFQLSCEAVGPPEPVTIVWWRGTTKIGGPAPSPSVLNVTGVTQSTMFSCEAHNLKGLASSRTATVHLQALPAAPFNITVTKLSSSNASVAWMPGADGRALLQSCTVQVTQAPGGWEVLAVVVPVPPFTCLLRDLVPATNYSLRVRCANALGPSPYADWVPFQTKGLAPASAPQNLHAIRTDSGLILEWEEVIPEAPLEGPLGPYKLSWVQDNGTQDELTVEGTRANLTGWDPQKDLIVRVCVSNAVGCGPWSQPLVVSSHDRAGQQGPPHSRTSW
Protocol: All binding experiments were performed using Biacore 3000 instrument (GE Healthcare) at 25° C. Soluble recombinant antigens corresponding to the extracellular domains of members of the human TAM receptor family, Axl (rhAxl-Fc chimera; R&D Systems, Cat. no. 154-AL), Mer (rhMer-Fc chimera; R&D Systems, Cat. no. 891-MR) and Tyro3 (rhTyro3/Dtk-Fc chimera; R&D Systems, Cat. no. 859-DK) were immobilized on the surface of CM5 sensor chip using amine coupling at the surface density of 393.0, 303.6 and 364.0 resonance units (RU), respectively. The Biacore run was performed in an automatic mode using Binding analysis wizard. Samples containing either MAb 10C9 or MAb 10G5 at concentration 10 μg/mL in HBS-EP buffer (GE Healthcare) were injected over the surfaces with immobilized antigens at flow rate of 30 μL/min for 3 min (association) followed by 5 min dissociation.
(§1) The binding experiments were performed using Biacore 3000 instrument (GE Healthcare) at 25° C. The soluble recombinant antigens corresponding to human Axl (rhAxl-Fc chimera; R&D Systems, Cat. no. 154-AL), mouse Axl (rmAxl-Fc chimera; R&D Systems, R&D Systems; Cat. no. 854-AX) and human Tyro3 (rhTyro3/Dtk-Fc chimera; R&D Systems, Cat. no. 859-DK) were immobilized on the surface of CM5 sensor chip using amine coupling at the surface density of 1,308.0, 2,115.9 and 1,429.0 RU, respectively. The Biacore runs were performed in an automatic mode using Binding analysis wizard.
(§2) The sample containing either MAb 10C9, MAb 10G5 or recombinant mouse (rm) Axl-ligand Gas6 (R&D Systems, Cat. no. 986-GS/CF) at concentration 10 μg/mL in HBS-EP buffer (GE Healthcare) was injected over the surfaces with immobilized antigens at flow rate of 30 μL/min for 3 min (association) followed by 5 min dissociation.

[3] = target: T2, mouse Axl (rmAxl-Fc chimera) (Mus musculus, UniProt Q00993); test: Biacore binding analysis on immobilized mouse Axl; conditions: 10 μg/mL, 25° C.
T2 construct: The soluble recombinant antigens corresponding to human Axl (rhAxl-Fc chimera; R&D Systems, Cat. no; 154-AL), mouse Axl (rmAxl-Fc chimera; purchased R&D Systems 854-AX
Protocol: as §1, §2

[4] = test system: cyno-Axl (Axl receptor from cynomolgus monkey); test: Biacore binding analysis on immobilized cyno-Axl; design: species or system Macaca fascicularis; conditions: 10 μg/mL, 25° C.
Protocol: The sequence of Axl receptor from cynomolgus monkey (Macaca fascicularis; SEQ ID NO.43) was retrieved from WO2009062690A1. Based on the sequence, recombinant extracellular domain of cyno-Axl was generated by transient expression in CHO cells as a fusion protein with human Fc. The recombinant cyno-Axl-Fc was purified to homogeneity using Protein A-Sepharose (GE Healthcare). The binding experiments were performed using Biacore 3000 instrument (GE Healthcare) at 25° C. The soluble recombinant antigens corresponding to human Axl (rhAxl-Fc chimera; R&D Systems, Cat. no. 154-AL) and cyno-Axl were immobilized on the surface of CM5 sensor chip using amine coupling at the surface density of 775 and 880 RU, respectively. The Biacore runs were performed in an automatic mode using Binding analysis wizard.
The sample containing either MAb 10C9, MAb 10G5 or human Axl-specific MAb 5F11 (control) at concentration 10 μg/mL in HBS-EP buffer (GE Healthcare) was injected over the surfaces with immobilized antigens at flow rate of 30 μL/min for 3 min (association) followed by 5 min dissociation.

cyno-Axl (Axl receptor from cynomolgus monkey), sequence (as listed by the source): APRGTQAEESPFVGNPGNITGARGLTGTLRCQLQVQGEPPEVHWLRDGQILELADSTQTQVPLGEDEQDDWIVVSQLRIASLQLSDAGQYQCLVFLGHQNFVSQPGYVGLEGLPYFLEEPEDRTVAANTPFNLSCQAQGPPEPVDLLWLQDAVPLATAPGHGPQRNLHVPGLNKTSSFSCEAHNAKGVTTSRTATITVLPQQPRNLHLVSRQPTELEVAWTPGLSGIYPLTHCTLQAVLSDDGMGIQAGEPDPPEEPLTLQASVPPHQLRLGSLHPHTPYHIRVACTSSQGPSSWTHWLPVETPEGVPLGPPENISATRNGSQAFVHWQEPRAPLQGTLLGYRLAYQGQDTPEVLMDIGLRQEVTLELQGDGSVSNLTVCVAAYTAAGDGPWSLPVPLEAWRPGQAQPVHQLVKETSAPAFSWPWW
T2 sequence (Q00993 19-445 limits assumed, change not shown): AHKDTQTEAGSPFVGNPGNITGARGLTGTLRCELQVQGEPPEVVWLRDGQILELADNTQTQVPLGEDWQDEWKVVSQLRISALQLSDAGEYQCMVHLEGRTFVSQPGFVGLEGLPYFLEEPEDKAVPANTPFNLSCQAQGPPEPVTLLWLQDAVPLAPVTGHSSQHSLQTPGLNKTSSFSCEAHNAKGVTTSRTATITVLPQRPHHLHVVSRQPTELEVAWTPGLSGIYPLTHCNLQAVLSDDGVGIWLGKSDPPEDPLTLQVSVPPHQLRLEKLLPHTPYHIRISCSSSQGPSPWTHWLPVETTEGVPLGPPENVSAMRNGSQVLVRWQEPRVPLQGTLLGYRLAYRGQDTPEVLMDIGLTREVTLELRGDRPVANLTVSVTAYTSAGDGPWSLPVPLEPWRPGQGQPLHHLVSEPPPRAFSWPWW

| Molecule | binding to MDA-MB-231 cells in flow cytometry [1] | binding to human Tyro3 [2] | binding to human Tyro3 ([2]; listed as 1009) | binding to mouse Axl [3] | binding to Axl from cynomolgus monkey [4] | binding to Axl from cynomolgus monkey ([4]; listed as 1009) |
| --- | --- | --- | --- | --- | --- | --- |
| B1 | Dose-dependent binding | no binding | no significant binding | no binding | strong and specific interaction | bind strongly |
| B2 |  | no significant binding |  | no binding | bind strongly; also recorded: strong and specific interaction |  |
| B3 | Dose-dependent binding |  |  |  |  |  |
